From article PMC11681865, “Oligomerization of protein arginine methyltransferase 1 and its functional impact on substrate arginine methylation” (The Journal of Biological Chemistry, 2024)

Columns and labels:
[1] = target: T1, PRMT1-WT (Homo sapiens, UniProt Q99873); assay: Radiometric filter-binding assay, PRMT1-WT activity in presence of inactive PRMT1 mutants; type: biochemical; conditions: 0.05 μM PRMT1-WT, mutant 20 min on ice, 50 μM peptide, 2 μM [3H]-SAM and 48 μM SAM, 30 min
T1 construct: His-MBP (N, cleaved yes); made in house; host or cells: Escherichia coli BL21 (DE3) RIPL
Text: (§1) Constant PRMT1-WT concentration and various PRMT1-E153Q concentrations were maintained in the aqueous buffer prior to adding peptide and SAM to initiate the reaction. The reaction was quenched with isopropanol. The reaction mixture was loaded on the P81 filter paper that was air dried, washed, and immersed in scintillation cocktail for scintillation counting. […] To eliminate this possibility, we created a double mutant (PRMT1-H293G/E153Q) to further abolish PRMT1 activity. […] We then tested PRMT1-WT activity in the presence of various concentrations of PRMT1-H293G/E153Q (Fig. 7, G–L). […] These increasing trends were the same as that of PRMT1-E153Q. […] Again, similar to Figure 6, D–F, the increase in kcat started to slow down a bit at >1 μM concentrations of PRMT1-E153Q or PRMT1-H293G/E153Q, which is likely due to substrate overconsumption under these conditions.
Figure 7 Arginine methylation of various peptides by high-order oligomeric PRMT1-WT and PRMT1 mutants. Filter-binding assay was used to characterize the methyltransferase activity. Firstly, 0.05 μM of PRMT1 was incubated with various concentrations of PRMT1-E153Q or PRMT1-H293G/E153Q on ice for 20 min. Afterward, 2 μM radioactive [3H]-SAM and 48 μM SAM and 50 μM of indicated peptides was added and incubated for 30 min before quenching the reaction with 100% isopropanol. […]

[2] = system: R4 peptide; assay: Radiometric methyltransferase activity of PRMT1 mutants on R4 peptide; type: biochemical; conditions: various mutant concentrations, 50 μM peptide, 2 μM [3H]-SAM and 48 μM SAM, 30 min
Text: as §1
To perform PRMT1 and PRMT1 mutants (PRMT1-E153Q and PRMT1-H293G/E153Q) concentration-dependent measurement, each reaction contained various concentration of PRMT1 or PRMT1 mutant, 50 μM of peptide, and 50 μM SAM (48 μM cold and […] ^3H-SAM). The reaction buffer consisted of 50 mM Hepes pH 8.0, 10 mM NaCl, 0.5 mM EDTA, and 0.5 mM DTT. The reaction was incubated at room temperature for 30 min after being initiated with ^3H-SAM SAM. An equal amount of 100% isopropanol to the total reaction volume was used to quench the reaction. […]

T1 sequence (Q99873 11-353 isoform Q99873-3): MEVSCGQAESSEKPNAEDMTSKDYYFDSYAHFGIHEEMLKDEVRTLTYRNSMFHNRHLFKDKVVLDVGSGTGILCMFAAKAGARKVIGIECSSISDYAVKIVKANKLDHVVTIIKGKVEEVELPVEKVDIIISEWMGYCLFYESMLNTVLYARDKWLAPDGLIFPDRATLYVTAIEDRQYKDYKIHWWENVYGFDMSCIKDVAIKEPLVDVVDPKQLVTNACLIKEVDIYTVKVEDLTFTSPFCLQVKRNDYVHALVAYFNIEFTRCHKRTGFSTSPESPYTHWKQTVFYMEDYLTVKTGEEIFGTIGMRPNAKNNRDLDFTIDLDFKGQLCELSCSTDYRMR

PRMT1-H293G/E153Q: double mutant created to further abolish PRMT1 activity
kcat of PRMT1-WT (CPM / PRMT1-WT concentration) in presence of mutant [1]: increased as a function of PRMT1-H293G/E153Q concentration
methylated product amount (CPM) of PRMT1-WT in presence of mutant [1]: gradually went up as the concentrations of the double mutant increased
methyltransferase activity of PRMT1 mutant [2]: even weaker than PRMT1-E153Q, greatly diminished to near background level
